According to paper PMC12858339 (The Journal of Biological Chemistry, 2025):

Target: T1, calmodulin (CaM), human calmodulin-1 (human, UniProt P0DP23 1-149)
T1 construct: also called CaM-NHS-Red
Experiment: MST; Red-NHS-labelled CaM kept constant (466 nM in the results, 50 nM in the methods), (myr)MAPP titrated; 50 mM Tris-HCl, 100 mM NaCl, 0.05% Tween 20, pH 7.4, with 20 mM CaCl2; 25 °C; triplicates
Conditions: both partners purified

B1: myristoylated M-PMV MA protein extended by 18 amino acids of the downstream phosphoprotein region of Gag (myrMAPP) (domain or fragment)
chain: GQELSQHERYVEQLKQALKTRGVKVKYADLLKFFDFVKDTCPWFPQEGTIDIKRWRRVGDCFQDYYNTFGPEKVPVTAFSYWNLIKELIDKKEVNPQVMAAVAQTEEILKSNSQTDL
modifications: N-terminal myristoyl; uniformly 15N-labelled in some NMR and mixed-isotope XL-MS samples
notes: source: E. coli BL21 (DE3), co-transformed with a plasmid coding yeast N-myristoyl transferase, purified (Ni-NTA agarose)
  Kd: 4.2 µM

B2: non-myristoylated M-PMV MA protein extended by 18 amino acids of the downstream phosphoprotein region of Gag (MAPP) (domain or fragment)
chain: B1 chain
  Kd: 33 µM
